“And” between values parts separate entries of the source, which are not always exact repeats. Equal entries are not always repeated. Ends that are not written are not given here.
Experiments:
[1] = cited from earlier work
Method: Table 1 Amyloid nucleation and stabilization data. | column: Cr (μM) || We also addressed whether the Aβ appendages of these hybrid peptides provide any additional stability to the Q23 amyloid cores, in analogy to the stabilizing effect of HTT^NT on HTT exon1 amyloid. Stabilities were assessed by determining the concentration of monomer present when the amyloid assembly reaction reaches equilibrium (Supplementary Fig. 5)[41]. […] The results (Table 1) indicate some interesting trends.

[2] = Segmental HX-MS of the C-terminal pepsin fragment (35–42/35–40) of mature fibrils; format: physicochemical; details: mature amyloid fibrils, pepsin cleavage between Leu34 and Met35
Excerpt: According to our hypothesis and designs of the peptide models, we expected the Aβ segments of the hybrid peptides to not be involved in amyloid core formation. […] Since the typical α-helix band in FTIR overlaps the characteristic polyQ amyloid band at ∼1,657 cm^−1 (ref. [23]), it is not expected that we might observe any α-helical structure in these fibrils that might be analogous to the HTT^NT α-helix in HTT exon1 fibrils. To address whether a portion of the Aβ segment might be involved in stable β-structure in the fibrils, we used hydrogen–deuterium exchange evaluated by mass spectrometry (HX-MS). […] The absence of a large amount of β-structure within the Aβ segment of the polyQ-Aβ hybrid fibrils is consistent with the total β-structure content of about 50% seen in the CD spectra of the final amyloid suspensions (Figs 2j, 3h and 4j) of peptides containing about 50% Gln residues. […]
All HX-MS data were analysed using an Agilent 1100 series single quadruple ESI mass spectrometer. Aggregates were washed and incubated in D2O and the exchange reactions analysed after an appropriate exchange time. Global HX was analysed by simultaneous dissolution and MS analysis of the exchange reaction using a T-tube front end to the MS[62]; data were not corrected for back-exchange. […]

Aβ42 aggregates = molecular target: T1, Aβ42 aggregates (Homo sapiens, UniProt P05067); assay: Global hydrogen–deuterium exchange mass spectrometry (HX-MS) of aggregates; format: physicochemical; details: for Global HX incorporation: not corrected for back-exchange
T1 construct: purchased Keck Center (Keck Biotechnology Center at Yale University); obtained pre-purified
T1 sequence (P05067 672-713): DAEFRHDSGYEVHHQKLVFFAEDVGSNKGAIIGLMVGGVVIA
Method: All HX-MS data were analysed using an Agilent 1100 series single quadruple ESI mass spectrometer. Aggregates were washed and incubated in D2O and the exchange reactions analysed after an appropriate exchange time. Global HX was analysed by simultaneous dissolution and MS analysis of the exchange reaction using a T-tube front end to the MS[62]; data were not corrected for back-exchange. Segmental exchange was performed as described. Briefly, fibrils were recovered from the exchange reaction by centrifugation (20,800g, 30 min), and in a 4 °C room to 20 μl ice-cold 8 M Gdn.HCl plus 0.1% formic acid was added to the pellets and mixed for 10 s, then 100 μl pepsin agarose (Sigma-Aldrich) in 0.1% cold formic acid was added and mixed for 10 s. The sample was immediately centrifuged to remove the immobilized pepsin (20,800g, 30 s) and the supernatant subjected to 4 °C LC-MS analysis.

[3] = Spontaneous aggregation kinetics by sedimentation-HPLC assay (disappearance of monomer); format: physicochemical; details: 22 μM start, after 35 days, PBS, 37 °C
Method: Disaggregated peptide stock solutions were first checked for approximate concentration. All concentrations, for setting up the reaction and for assaying kinetics time points, were determined from integrated A214 HPLC (Agilent XDB-C18 4.6 × 50 mm column) peaks using standard curves individually constructed for each peptide from standard stock solutions calibrated via the A215 absorption[23][41]. […] Sodium azide was added to 0.05% (w/v) and pH adjusted to 7.4. After filtration through a 0.2 μm filter unit (Anotop 10) to get rid of aggregates, the solution was held at 4 °C while the t=0 concentration was determined (∼30 min). The reaction mixture was moved to 37 °C and kinetics monitored by the sedimentation and ThT assays on reaction aliquots and by CD.
Duplicate time points were removed periodically, centrifuged 30 min at 436,000g followed by HPLC analysis of monomer concentration from the carefully removed supernatant[41].
For sedimentation and ThT kinetics, as well as kinetics underlying the n* and Cr determinations and inhibition kinetics studies, each plotted data point is derived from analysis of 2–3 independent reaction aliquots. Each aggregation study was independently carried out twice, with similar results obtained.

Aβ40: full-length Aβ peptide ending at residue 40
Cr of fibrils [1]: 1.06 ± 0.18 µM
Exchange of the C-terminal 35–42/35–40 fragment after exposure of fibrils to D2O [2]: essentially fully exchanged

Aβ42: full-length Aβ peptide ending at residue 42
Cr of fibrils [1]: 0.11 ± 0.01 µM and 0.11 µM
Global HX incorporation (Aβ42 aggregates; Aβ42 aggregated alone): 14.8±1.2 deuteriums
Global HX incorporation (Aβ42 aggregates; Aβ42 aggregates grown in the presence of K10G2Aβ31–42): 25.6±1.2 deuteriums
Newly unprotected amide hydrogens (Aβ42 aggregates; Aβ42 aggregates grown with K10G2Aβ31–42 vs Aβ42 alone): ~11
Exchange of the C-terminal 35–42/35–40 fragment after exposure of fibrils to D2O [2]: resists exchange

H-KKQQQQQQQQQQQQQQQQQQQQQQQKKAIIGLMVGGVVIA-OH
fraction of reaction mixture sedimentable at early time: 15%

KKKKKKKKKKGGIIGLMVGGVVIA [K10G2Aβ31–42]
Monomer remaining in the reaction mixture [3]: ~13 µM

Source: article PMC4996947, “Rapid α-oligomer formation mediated by the Aβ C terminus initiates an amyloid assembly pathway” (Nature Communications, 2016)
